Test results from publication PMC2150872 (The Journal of Cell Biology, 2001).

T1: keratin 5 (human, UniProt P13647 1-590)
T1 sequence (looked up): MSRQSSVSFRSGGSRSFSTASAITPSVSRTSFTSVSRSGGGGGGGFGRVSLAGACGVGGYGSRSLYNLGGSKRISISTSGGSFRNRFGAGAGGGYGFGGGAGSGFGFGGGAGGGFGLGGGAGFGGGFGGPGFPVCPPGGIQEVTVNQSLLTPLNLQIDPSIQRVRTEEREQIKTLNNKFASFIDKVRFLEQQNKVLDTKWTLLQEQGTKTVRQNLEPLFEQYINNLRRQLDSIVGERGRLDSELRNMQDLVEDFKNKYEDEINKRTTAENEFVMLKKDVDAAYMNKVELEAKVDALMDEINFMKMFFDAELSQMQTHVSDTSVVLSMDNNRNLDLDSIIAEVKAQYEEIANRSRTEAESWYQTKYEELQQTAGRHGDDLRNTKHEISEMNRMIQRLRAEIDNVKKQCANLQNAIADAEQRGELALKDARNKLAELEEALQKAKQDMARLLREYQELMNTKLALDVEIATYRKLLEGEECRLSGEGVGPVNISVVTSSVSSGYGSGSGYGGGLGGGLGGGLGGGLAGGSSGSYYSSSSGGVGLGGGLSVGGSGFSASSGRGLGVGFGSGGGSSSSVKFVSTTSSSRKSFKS

T2: wt K5–K14 filaments (human, UniProt P13647 1-590; P02533 1-472)
T2 sequence (looked up) 1: T1 sequence (looked up)
T2 sequence (looked up) 2: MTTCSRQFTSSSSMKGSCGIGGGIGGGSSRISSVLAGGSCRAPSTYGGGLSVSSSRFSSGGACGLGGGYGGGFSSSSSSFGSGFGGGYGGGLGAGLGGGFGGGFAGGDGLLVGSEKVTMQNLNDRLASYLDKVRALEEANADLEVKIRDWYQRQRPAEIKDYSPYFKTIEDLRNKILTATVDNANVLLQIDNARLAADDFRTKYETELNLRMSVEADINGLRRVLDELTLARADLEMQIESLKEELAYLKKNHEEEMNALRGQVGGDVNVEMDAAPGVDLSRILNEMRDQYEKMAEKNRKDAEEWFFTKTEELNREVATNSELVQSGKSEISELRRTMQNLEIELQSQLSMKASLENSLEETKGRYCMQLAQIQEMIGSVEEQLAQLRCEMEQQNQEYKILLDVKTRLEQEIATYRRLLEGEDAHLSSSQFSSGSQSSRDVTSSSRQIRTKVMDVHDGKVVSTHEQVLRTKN

B1: keratin 19 (natural protein, human, UniProt P08727 1-400, looked up)
chain: MTSYSYRQSSATSSFGGLGGGSVRFGPGVAFRAPSIHGGSGGRGVSVSSARFVSSSSSGAYGGGYGGVLTASDGLLAGNEKLTMQNLNDRLASYLDKVRALEAANGELEVKIRDWYQKQGPGPSRDYSHYYTTIQDLRDKILGATIENSRIVLQIDNARLAADDFRTKFETEQALRMSVEADINGLRRVLDELTLARTDLEMQIEGLKEELAYLKKNHEEEISTLRGQVGGQVSVEVDSAPGTDLAKILSDMRSQYEVMAEQNRKDAEAWFTSRTEELNREVAGHTEQLQMSRSEVTDLRRTLQGLEIELQSQLSMKAALEDTLAETEARFGAQLAHIQALISGIEAQLGDVRADSERQNQEYQRLMDIKSRLEQEIATYRSLLEGQEDHYNNLSASKVL

Columns and labels:
[1] = molecular target: T1, keratin 5; test: filament reconstitution
[2] = molecular target: T2, wt K5–K14 filaments; test: co-sedimentation

| Binder | binding result [1] | Kd [2] [µM] |
| --- | --- | --- |
| B1 | binds |  |
| SSSQFSSGSQSSRDVTSSSRQIRTKVMDVHDGKVVSTHEQVLRTKN (domain or fragment) [His-T14 (His-tagged nonhelical tail domain of human keratin 14)] |  | ~2 |
